Test results as given in paper PMC7692627.

B1: R13 (ssDNA)
DNA: ATAGTCCCTGGCGTGCTTGCATGCTTGGCCCTGCACCGCCTTCGGTCTTTCGCCGACCTCGTCGTTTATTCTATCGGGTTATAAGGATAATGCGGGGTAGAGCAGGTACGGTGTCA
B2: F17 (ssDNA)
DNA: TGACACCGTACCTGCTCTGCCGTAGTGATCCTCCTTAACAGTGACCTATAGATCGTTCGTCGTATTTGCTTTGACAATCCTTCTCAGATACTCTCCCGAAGCACGCCAGGGACTAT

Target: His-P10 outer capsid protein (Rice black-streaked dwarf virus (RBSDV), UniProt D2Y4Q6 1-558)
Assay: ELONA
Conditions: protein: recombinant; tags: N-terminal 6xHis (pET-15b)

Binder | binding signal [A450 ratio P10/BSA]
B1 | 1.26
B2 | 7.55
